± gives the uncertainty stated by the source.
B1: Tumor protein 63, residues 545 to 610; numbered along this chain, Q9H3D4 (parent)
chain: TDCSIVSFLARLGCSSCLDYFTTQGLTTIYQIEHYSMDDLASLKIPEQFRHAIWKGILDHRQLHEF

Variants of: B1
Test: abundance fitness (aPCA) (normalised: wild type 0, dead -1); higher = more abundant; growth selection in yeast, the domain comes from the species named
Conditions: Homo sapiens

Q: Which abundance fitness does the source give for TDCSIVSFLARLGCSSCLDYFTTQGLTTIWQIEHYSMDDLASLKIPEQFRHAIWKGILDHRQLHEF [Y30W] here?
A: Its abundance fitness is -0.06 ± 0.044.

Q: For TDCSIVSFLARLGCSSCLDYFTTQGLTTIYQIGHYSMDDLASLKIPEQFRHAIWKGILDHRQLHEF [E33G], which abundance fitness is on record?
A: The abundance fitness was -0.074 ± 0.019.

Q: Which abundance fitness does the source give for TDCSIVSFLARLGCSSCLDYFTTQGLTTIYQIWHYSMDDLASLKIPEQFRHAIWKGILDHRQLHEF [E33W] here?
A: The abundance fitness was -0.046 ± 0.03.

Q: With TDCSIVSFLARLGCSSCLDYFTTQGLTTIYQIQHYSMDDLASLKIPEQFRHAIWKGILDHRQLHEF [E33Q] as the variant, how does the abundance fitness read?
A: Its abundance fitness is 0.013 ± 0.049.

Q: Which abundance fitness does the source give for TDCSIVSFLARLGCSSCLDYFTTQGLTTIYQIFHYSMDDLASLKIPEQFRHAIWKGILDHRQLHEF [E33F] here?
A: The abundance fitness was -0.06 ± 0.045.

Q: Which abundance fitness does the source give for TDCSIVSFLARLGCSSCLDYFTTQGLTTIYQITHYSMDDLASLKIPEQFRHAIWKGILDHRQLHEF [E33T] here?
A: The abundance fitness was -0.047 ± 0.045.

Q: For TDCSIVSFLARLGCSSCLDYFTTQGLTTIYQINHYSMDDLASLKIPEQFRHAIWKGILDHRQLHEF [E33N], which abundance fitness is on record?
A: Its abundance fitness is -0.117 ± 0.041.

Q: For TDCSIVSFLARLGCSSCLDYFTTQGLTTIYQIDHYSMDDLASLKIPEQFRHAIWKGILDHRQLHEF [E33D], which abundance fitness is on record?
A: The abundance fitness was -0.026 ± 0.068.

Q: Which abundance fitness does the source give for TDCSIVSFLARLGCSSCLDYFTTQGLTTIYQIKHYSMDDLASLKIPEQFRHAIWKGILDHRQLHEF [E33K] here?
A: Its abundance fitness is -0.112 ± 0.039.

Q: Which abundance fitness does the source give for TDCSIVSFLARLGCSSCLDYFTTQGLTTIYQIHHYSMDDLASLKIPEQFRHAIWKGILDHRQLHEF [E33H] here?
A: Its abundance fitness is -0.039 ± 0.044.

Q: For TDCSIVSFLARLGCSSCLDYFTTQGLTTIYQIAHYSMDDLASLKIPEQFRHAIWKGILDHRQLHEF [E33A], which abundance fitness is on record?
A: The abundance fitness was -0.042 ± 0.029.

Q: For TDCSIVSFLARLGCSSCLDYFTTQGLTTIYQIPHYSMDDLASLKIPEQFRHAIWKGILDHRQLHEF [E33P], which abundance fitness is on record?
A: The abundance fitness was -0.772 ± 0.082.

Q: With TDCSIVSFLARLGCSSCLDYFTTQGLTTIYQICHYSMDDLASLKIPEQFRHAIWKGILDHRQLHEF [E33C] as the variant, how does the abundance fitness read?
A: Its abundance fitness is -0.05 ± 0.036.

Q: For TDCSIVSFLARLGCSSCLDYFTTQGLTTIYQIYHYSMDDLASLKIPEQFRHAIWKGILDHRQLHEF [E33Y], which abundance fitness is on record?
A: The abundance fitness was -0.098 ± 0.064.

Q: With TDCSIVSFLARLGCSSCLDYFTTQGLTTIYQISHYSMDDLASLKIPEQFRHAIWKGILDHRQLHEF [E33S] as the variant, how does the abundance fitness read?
A: Its abundance fitness is -0.052 ± 0.036.

Q: With TDCSIVSFLARLGCSSCLDYFTTQGLTTIYQILHYSMDDLASLKIPEQFRHAIWKGILDHRQLHEF [E33L] as the variant, how does the abundance fitness read?
A: The abundance fitness was -0.06 ± 0.027.

Q: Which abundance fitness does the source give for TDCSIVSFLARLGCSSCLDYFTTQGLTTIYQIIHYSMDDLASLKIPEQFRHAIWKGILDHRQLHEF [E33I] here?
A: The abundance fitness was -0.139 ± 0.069.

Q: Which abundance fitness does the source give for TDCSIVSFLARLGCSSCLDYFTTQGLTTIYQIESYSMDDLASLKIPEQFRHAIWKGILDHRQLHEF [H34S] here?
A: Its abundance fitness is -0.004 ± 0.025.

Q: Which abundance fitness does the source give for TDCSIVSFLARLGCSSCLDYFTTQGLTTIYQIEMYSMDDLASLKIPEQFRHAIWKGILDHRQLHEF [H34M] here?
A: The abundance fitness was -0.044 ± 0.027.

Q: With TDCSIVSFLARLGCSSCLDYFTTQGLTTIYQIEFYSMDDLASLKIPEQFRHAIWKGILDHRQLHEF [H34F] as the variant, how does the abundance fitness read?
A: The abundance fitness was -0.102 ± 0.033.

Q: With TDCSIVSFLARLGCSSCLDYFTTQGLTTIYQIECYSMDDLASLKIPEQFRHAIWKGILDHRQLHEF [H34C] as the variant, how does the abundance fitness read?
A: The abundance fitness was -0.141 ± 0.049.

Q: For TDCSIVSFLARLGCSSCLDYFTTQGLTTIYQIEKYSMDDLASLKIPEQFRHAIWKGILDHRQLHEF [H34K], which abundance fitness is on record?
A: The abundance fitness was -0.018 ± 0.04.

Q: Which abundance fitness does the source give for TDCSIVSFLARLGCSSCLDYFTTQGLTTIYQIELYSMDDLASLKIPEQFRHAIWKGILDHRQLHEF [H34L] here?
A: Its abundance fitness is -0.106 ± 0.023.

Q: Which abundance fitness does the source give for TDCSIVSFLARLGCSSCLDYFTTQGLTTIYQIEVYSMDDLASLKIPEQFRHAIWKGILDHRQLHEF [H34V] here?
A: Its abundance fitness is -0.27 ± 0.027.

Q: With TDCSIVSFLARLGCSSCLDYFTTQGLTTIYQIENYSMDDLASLKIPEQFRHAIWKGILDHRQLHEF [H34N] as the variant, how does the abundance fitness read?
A: The abundance fitness was 0.02 ± 0.029.

Q: Which abundance fitness does the source give for TDCSIVSFLARLGCSSCLDYFTTQGLTTIYQIEQYSMDDLASLKIPEQFRHAIWKGILDHRQLHEF [H34Q] here?
A: Its abundance fitness is -0.041 ± 0.032.

Q: Which abundance fitness does the source give for TDCSIVSFLARLGCSSCLDYFTTQGLTTIYQIEPYSMDDLASLKIPEQFRHAIWKGILDHRQLHEF [H34P] here?
A: The abundance fitness was -0.188 ± 0.026.

Q: For TDCSIVSFLARLGCSSCLDYFTTQGLTTIYQIEEYSMDDLASLKIPEQFRHAIWKGILDHRQLHEF [H34E], which abundance fitness is on record?
A: Its abundance fitness is -0.007 ± 0.026.

Q: With TDCSIVSFLARLGCSSCLDYFTTQGLTTIYQIETYSMDDLASLKIPEQFRHAIWKGILDHRQLHEF [H34T] as the variant, how does the abundance fitness read?
A: The abundance fitness was -0.084 ± 0.031.

Q: With TDCSIVSFLARLGCSSCLDYFTTQGLTTIYQIEYYSMDDLASLKIPEQFRHAIWKGILDHRQLHEF [H34Y] as the variant, how does the abundance fitness read?
A: The abundance fitness was -0.08 ± 0.029.

Q: For TDCSIVSFLARLGCSSCLDYFTTQGLTTIYQIEAYSMDDLASLKIPEQFRHAIWKGILDHRQLHEF [H34A], which abundance fitness is on record?
A: Its abundance fitness is -0.037 ± 0.024.

Q: For TDCSIVSFLARLGCSSCLDYFTTQGLTTIYQIEGYSMDDLASLKIPEQFRHAIWKGILDHRQLHEF [H34G], which abundance fitness is on record?
A: The abundance fitness was -0.014 ± 0.018.

Q: Which abundance fitness does the source give for TDCSIVSFLARLGCSSCLDYFTTQGLTTIYQIEIYSMDDLASLKIPEQFRHAIWKGILDHRQLHEF [H34I] here?
A: The abundance fitness was -0.372 ± 0.039.

Q: Which abundance fitness does the source give for TDCSIVSFLARLGCSSCLDYFTTQGLTTIYQIEWYSMDDLASLKIPEQFRHAIWKGILDHRQLHEF [H34W] here?
A: The abundance fitness was -0.06 ± 0.025.

Q: For TDCSIVSFLARLGCSSCLDYFTTQGLTTIYQIEHPSMDDLASLKIPEQFRHAIWKGILDHRQLHEF [Y35P], which abundance fitness is on record?
A: Its abundance fitness is -0.955 ± 0.15.

Q: Which abundance fitness does the source give for TDCSIVSFLARLGCSSCLDYFTTQGLTTIYQIEHDSMDDLASLKIPEQFRHAIWKGILDHRQLHEF [Y35D] here?
A: Its abundance fitness is -0.698 ± 0.088.

Q: For TDCSIVSFLARLGCSSCLDYFTTQGLTTIYQIEHRSMDDLASLKIPEQFRHAIWKGILDHRQLHEF [Y35R], which abundance fitness is on record?
A: The abundance fitness was -0.48 ± 0.021.

Q: With TDCSIVSFLARLGCSSCLDYFTTQGLTTIYQIEHSSMDDLASLKIPEQFRHAIWKGILDHRQLHEF [Y35S] as the variant, how does the abundance fitness read?
A: Its abundance fitness is -0.251 ± 0.023.

Q: For TDCSIVSFLARLGCSSCLDYFTTQGLTTIYQIEHHSMDDLASLKIPEQFRHAIWKGILDHRQLHEF [Y35H], which abundance fitness is on record?
A: The abundance fitness was -0.103 ± 0.034.

Q: Which abundance fitness does the source give for TDCSIVSFLARLGCSSCLDYFTTQGLTTIYQIEHISMDDLASLKIPEQFRHAIWKGILDHRQLHEF [Y35I] here?
A: Its abundance fitness is -0.257 ± 0.061.

Q: For TDCSIVSFLARLGCSSCLDYFTTQGLTTIYQIEHGSMDDLASLKIPEQFRHAIWKGILDHRQLHEF [Y35G], which abundance fitness is on record?
A: The abundance fitness was -0.635 ± 0.023.

— the Human Domainome abundance scans (Beltran et al. 2025)
